Laboratory results as given in PMC6520365, “Structural and functional characterization of the PDZ domain of the human phosphatase PTPN3 and its interaction with the human papillomavirus E6 oncoprotein” (Scientific Reports, 2019).
Marks after values point to notes of the source that are not given here.

Columns and labels:
Type in all cases: physicochemical, human
[1] = Aggregation/stability followed by NMR HSQC spectra at 20 °C
Experimental: To evaluate the stability of PTPN3-PDZ, we performed differential scanning calorimetry (DSC) (Fig. 2C). […] As a comparison, we performed DSC on PTPN4-PDZ. We obtained an endothermic peak with a Tm of 47 °C (Fig. 2C). […] This thermal instability of the PTPN3-PDZ construct could be responsible for its aggregation previously detected by NMR.
The instability and tendency to oligomerize of PTPN3-PDZ made this construct unsuitable for crystallogenesis. To gain in stability and protein expression yield, we extended the N-terminal extremity of PTPN3-PDZ by 15-residues with its wild-type upstream sequence (PTPN3-PDZNext in Fig. 1). These extensions have been reported to provide structural stability to some PDZ containing proteins[13],[14]. The PTPN3-PDZ production yield was increased two-fold after extension from 0.9 mg to 1.8 mg of purified protein per liter of culture. The stability of PTPN3-PDZNext was then evaluated by NMR HSQC spectra recorded during a week at 20 °C. […] The additional peaks of the N-terminal extension residues fall in the spectral region characteristic of unfolded protein and no chemical shift differences between PTPN3-PDZNext and the shorter form are detected.
A series of ^1H, ^15N HSQC spectra was recorded over a week at 20 °C for a sample of PTPN3-PDZNext at 170 μM to follow the stability of the construct.

[2] = AUC sedimentation velocity of free PTPN3 PDZ constructs; details: 20 °C
[3] = DSC of free PDZ domain (thermal stability); details: 21 μM free PTPN3-PDZ, 18 μM PTPN4-PDZ, scan rate 200 °C/h, buffer A pH 7.5, repeated three times
Experimental: DSC experiments were carried out on a Microcal VP-capillary DSC (Malvern). 18, 21, 94 and 28 μM of PTPN4-PDZ, free PTPN3-PDZ, free PTPN3-PDZNext and PTPN3-PDZ complexed with peptides respectively were scanned from 10 °C to 90–100 °C with a scan rate of 200 °C/h. Large excess of peptides were used: about 600 μM for p38γ PBM, about 300 μM for HBVc PBM and HPV16E6 PBM and about 200 μM for HPV18E6 PBM. The buffer A was repeatedly scanned to ensure a stable buffer baseline. The buffer baseline was subtracted from the protein thermogram. Subsequent to normalization of the data by the protein concentration, a non-linear curve fitting algorithm was employed to obtain the Tm of the transition. All experiments were repeated three times.

[4] = AUC sedimentation velocity of free PTPN3 PDZ constructs; details: 20 °C; remark: listed apart in the source
Experimental: To estimate the oligomeric state of the PTPN3-PDZ construct, analytical ultracentrifugation (AUC) experiments were performed (Table 2). Three different concentrations of the protein were tested, 10, 25 and 70 μM. Only one single peak was detected at 10 μM with a sedimentation coefficient of 1.5S in agreement with a monomeric form of 10.5 kDa. At 25 μM, an additional peak was detected with a sedimentation coefficient of 2.6S corresponding to a dimeric form.
Sedimentation velocity experiments were carried out at 20 °C using a Beckman Coulter XL-I centrifuge equipped with a AN60-Ti rotor. Various protein and protein–peptide complex concentrations (protein concentrations ranging from 12.5 to 70 μM) samples were centrifuged for 17 h at 42000 rpm. Data were analyzed with SEDFIT 15.1 using a continuous size distribution c(S) model. The partial specific volume, the viscosity and the density of the samples were calculated with […]. The processed data were used to obtain values of sedimentation coefficients at null concentration in our experimental conditions (S0) and to get the standard sedimentation coefficients in water at 20 °C (S0,w,20) (Table 2).

[5] = PTPN3-PDZ 25 μM, two peaks are present

Molecule | aggregation by HSQC peak intensity ([1]; HSQC recorded during a week at 20 °C, PTPN3-PDZNext 170 μM) | MW estimated ([2]; PTPN3-PDZNext 17.5 μM) | Sed coef (S0,w,20) ([2]; PTPN3-PDZNext 17.5 μM) | MW estimated ([2]; PTPN3-PDZNext 35 μM) | Sed coef (S0,w,20) ([2]; PTPN3-PDZNext 35 μM) | MW estimated ([2]; PTPN3-PDZNext 70 μM) | Sed coef (S0,w,20) ([2]; PTPN3-PDZNext 70 μM) | oligomeric state of free PTPN3-PDZNext ([2]; PTPN3-PDZNext between 17.5 μM and 70 μM) | Tm (thermal transition midpoint), free PDZ domain [3] | MW estimated ([4]; PTPN3-PDZ 10 μM, 42000 rpm) | Sed coef (S0,w,20) ([4]; PTPN3-PDZ 10 μM, standard coefficient in water at 20 °C) | MW estimated [4, 5] | Sed coef (S0,w,20) [4, 5] | oligomeric state of free PTPN3-PDZ ([4]; PTPN3-PDZ 70 μM) | aggregation by HSQC peak intensity ([1]; after 10 h at 20 °C, data not shown)
PTPN3-PDZNext: PTPN3-PDZ extended at the N-terminal extremity by 15 residues with its wild-type upstream sequence (protein, left off: GST, N-terminal, cleaved) STEDASQYYCDKNDNGDSYLVLIRITPDEDGKFGFNLKGGVDQKMPLVVSRINPESPADTCIPKLNEGDQIVLINGRDISEHTHDQVVMFIKASRESHSRELALVIRRRAVRSFADFKSEDELNQLFPEAIFPMCPEGGDTLEGSMAQLKKGLESGTVLIQFEQLYRKKPGLAITFAKLPQNLDKNRYKDVLPYDTTRVLLQGNEDYINASYVNMEIPAANLVNKYIATQGPLPHTCAQFWQVVWDQKLSLIVMLTTLTERGRTKCHQYWPDPPDVMNHGGFHIQCQSEDCTIAYVSREMLVTNTQTGEEHTVTHLQYVAWPDHGVPDDSSDFLEFVNYVRSLRVDSEPVLVHCSAGIGRTGVLVTMETAMCLTERNLPIYPLDIVRKMRDQRAMMVQTSSQYKFVCEAILRVYEEGLVQMLDPS | without any signs of aggregation | 12.7 kDa | 1.6 S | 12.5 kDa | 1.7 S | 15 kDa | 1.6 S | devoid of higher oligomeric species |  |  |  |  |  |  | 
PTPN3-PDZ: recombinant PDZ domain of human PTPN3 expressed in E. coli (protein, left off: GST, N-terminal, cleaved, recombinant PDZ domain of human PTPN3 expressed in E. coli) GDSYLVLIRITPDEDGKFGFNLKGGVDQKMPLVVSRINPESPADTCIPKLNEGDQIVLINGRDISEHTHDQVVMFIKASRESHSRELALVIRRRAVRSFADFKSEDELNQLFPEAIFPMCPEGGDTLEGSMAQLKKGLESGTVLIQFEQLYRKKPGLAITFAKLPQNLDKNRYKDVLPYDTTRVLLQGNEDYINASYVNMEIPAANLVNKYIATQGPLPHTCAQFWQVVWDQKLSLIVMLTTLTERGRTKCHQYWPDPPDVMNHGGFHIQCQSEDCTIAYVSREMLVTNTQTGEEHTVTHLQYVAWPDHGVPDDSSDFLEFVNYVRSLRVDSEPVLVHCSAGIGRTGVLVTMETAMCLTERNLPIYPLDIVRKMRDQRAMMVQTSSQYKFVCEAILRVYEEGLVQMLDPS |  |  |  |  |  |  |  |  | 41 °C | 12.4 kDa | 1.5 S | 11.3–25.9^a kDa | 1.5–2.6^a S | higher oligomeric species could be detected | significant loss of peak intensities
